Results published in article PMC280649 (BMC Biochemistry, 2003).
Values joined by “and” are separate entries in the source; they are usually repeats but may differ in a detail not shown here. Equal entries are not always repeated.

Assays:
CAR (Homo sapiens) = CAR (Homo sapiens) (UniProt P78310); conditions: cited from earlier work
CD31 (Homo sapiens) = CD31 (Homo sapiens) (UniProt P16284); conditions: cited from earlier work
CD150 (Homo sapiens) = CD150 (Homo sapiens) (UniProt Q13291); assay: SPR; conditions: cited from earlier work
NCAM = NCAM (UniProt P13591); conditions: cited from earlier work
SPR [1] = biological target: the molecule itself; assay: SPR
SPR [2] = biological target: the molecule itself; assay: SPR; remark: listed apart in the source

Q: With CAR (from UniProt P78310) as the molecule, how does the Kd (CAR (Homo sapiens)) read?
A: 16 µM

Q: With CD31 (from UniProt P16284) as the molecule, how does the Kd (CD31 (Homo sapiens)) read?
A: 12.5 µM

Q: Which Kd (CD150 (Homo sapiens)) does the source give for CD150 (from UniProt Q13291) here?
A: 200 µM

Q: Which Kd (NCAM) does the source give for NCAM (from UniProt P13591) here?
A: 100 µM

B1: mCD147d0-2rCD4d3+4 (mouse CD147 domains 0 to 2 fused to rat CD4 domains 3 and 4) (domain or fragment, UniProt P18572 22-325, looked up)
chain: AAGFLKAPLSQERWAGGSVVLHCEAVGSPIPEIQWWFEGNAPNDSCSQLWDGARLDRVHIHAAYRQHAASSLSVDGLTAEDTGTYECRASSDPDRNHLTRPPRVKWVRAQASVVVLEPGTIQTSVQEVNSKTQLTCSLNSSGVDIVGHRWMRGGKVLQEDTLPDLHTKYIVDADDRSGEYSCIFLPEPVGRSEINVEGPPRIKVGKKSEHSSEGELAKLVCKSDASYPPITDWFWFKTSDTGEEEAITNSTEANGKYVVVSTPEKSQLTISNLDVNVDPGTYVCNATNAQGTTRETISLRVRSR
modifications: biotin on the C-terminal biotinylation sequence (BirA enzyme) in the immobilised copy; the soluble copy was unbiotinylated
Q: For B1, which Kd (SPR [1]) is on record?
A: 39 µM and 35 µM

Q: What about the koff (SPR [2]) of the same molecule?
A: 0.7 s⁻¹

Q: And the t1/2 (SPR [2])?
A: 1 s
